Patent US20120039932A1

Target: human DC-SIGN (CD209), expressed on 293T cells (human) (UniProt Q9NNX6)
Assay: cell-based or functional assay

UniProt Q9NNX6, sequence (Q9NNX6 whole entry): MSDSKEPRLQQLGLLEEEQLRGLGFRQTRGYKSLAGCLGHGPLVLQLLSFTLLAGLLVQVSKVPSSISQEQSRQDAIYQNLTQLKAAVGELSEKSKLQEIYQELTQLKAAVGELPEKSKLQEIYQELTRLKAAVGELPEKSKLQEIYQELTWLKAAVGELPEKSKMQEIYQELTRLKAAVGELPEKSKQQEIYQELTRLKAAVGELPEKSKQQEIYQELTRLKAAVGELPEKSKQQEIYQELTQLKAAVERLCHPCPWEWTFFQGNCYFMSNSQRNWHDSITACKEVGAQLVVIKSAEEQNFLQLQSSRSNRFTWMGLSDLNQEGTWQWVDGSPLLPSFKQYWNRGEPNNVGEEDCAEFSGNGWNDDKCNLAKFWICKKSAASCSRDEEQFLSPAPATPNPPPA

Sindbis virus HR strain envelope E2 glycoprotein, on pseudotyped lentiviral vector particles (from UniProt P03316 329-751)
GFU/mL on 293-hDC-SIGN cells (transduction titer): 6.4e+06 GFU/mL | Ratio (GFU/mL on 293-hDC-SIGN cells over 293T cells): 9.4

VSV-G envelope glycoprotein, on pseudotyped lentiviral vector particles (from UniProt P03522 17-511)
GFU/mL on hDC-SIGN cells (transduction titer): 1.35e+08 GFU/mL | Ratio (GFU/mL on hDC-SIGN cells over 293T cells): 1.19
